According to the supplement of paper PMC10724198:
± gives the standard deviation of the averaged measurements.

Tested on: Saccharomyces cerevisiae
Assay: protein stability index of tFT-peptide fusion (C-terminal peptide) (PSI (0-1 scale)); higher = more stable (slower turnover)
Conditions: genetic background: wild type; temperature: 30 C
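Further: PSI is a weighted mean of sequencing reads over stability bins, variants kept only with over 10 reads, mCherry proximal and sfGFP distal, peptide attached via GGGS linker.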

RTLNILCGGALR and PFEVPSSVISVP are within error of each other in protein stability index: 0.691 ± 0.049 for the first, 0.673 ± 0.13 for the second.

DWKLPRIEREST and RHGRDNPSGRLN are within error of each other in protein stability index: 0.678 ± 0.024 for the first, 0.6902 ± 0.0046 for the second.

First: KNQRTLKSPQEV
Second: ILLFLRCFSGFF
The protein stability index of the first is higher: 0.6387 ± 0.0055 for the first, 0.5619 ± 0.0046 for the second.

Going from IVALDGWPGVEA to LIYKRQPAFRCG, the protein stability index falls from 0.7226 ± 0.0055 to 0.632 ± 0.023.

GVRVRAGYDVRA and RPGWSRGREAVA are within error of each other in protein stability index: 0.6619 ± 0.0033 for the first, 0.735 ± 0.14 for the second.

DGVIVACWCRRS and PLSPSCTLPPRP are within error of each other in protein stability index: 0.66 ± 0.021 for the first, 0.674 ± 0.034 for the second.

RVSVSWDDGVMV and PEYGSGCNCLGS are within error of each other in protein stability index: 0.652 ± 0.0088 for the first, 0.664 ± 0.0073 for the second.

RDLSEGRSPLGI and LSCWLGCVALGW are within error of each other in protein stability index: 0.661 ± 0.081 for the first, 0.718 ± 0.13 for the second.

LETIFEDFGKYR and EITRNKRRCARR are within error of each other in protein stability index: 0.794 ± 0.092 for the first, 0.674 ± 0.14 for the second.

First: VRVEVVVFEGAG
Second: MSSTLCMLPFSV
The protein stability index of the first is lower: 0.598 ± 0.034 for the first, 0.771 ± 0.012 for the second.

PPPPPPVSPAAL and CTSCDQRLQRWG are within error of each other in protein stability index: 0.69 ± 0.018 for the first, 0.728 ± 0.033 for the second.

Compared with YPPPPPPPPPRF, NCFVTILLGMWK is lower in protein stability index: 0.7367 ± 0.0056 for the first, 0.513 ± 0.022 for the second.

First: SGARDLVILTPW
Second: EPAAGFAICRHH
The protein stability index of the first is higher: 0.713 ± 0.013 for the first, 0.67 ± 0.02 for the second.

VFNSFPLRLFGL and TPPPNTPSPLTI are within error of each other in protein stability index: 0.693 ± 0.023 for the first, 0.654 ± 0.033 for the second.

CYFKTIYRNMEY and KNVVSVRWERNE are within error of each other in protein stability index: 0.541 ± 0.032 for the first, 0.635 ± 0.084 for the second.

SPFLFPRTVVGA and GFARICVLLPSS are within error of each other in protein stability index: 0.671 ± 0.11 for the first, 0.727 ± 0.039 for the second.

PRPPRAPPPLPS and EKLKNTYLNRTE are within error of each other in protein stability index: 0.643 ± 0.1 for the first, 0.641 ± 0.023 for the second.

Compared with SLPTPPLFPSFP, PCYSFSSSPPRL is lower in protein stability index: 0.731 ± 0.014 for the first, 0.693 ± 0.016 for the second.

ETARENENTIGE and PPINPTEPPITI are within error of each other in protein stability index: 0.6575 ± 0.0065 for the first, 0.696 ± 0.092 for the second.

SGVHFFLRTGAL and FRFTSSPVFSWL are within error of each other in protein stability index: 0.692 ± 0.016 for the first, 0.708 ± 0.014 for the second.

RRRGTYTYSLLL and PPLPSSLPPISF are within error of each other in protein stability index: 0.73 ± 0.014 for the first, 0.703 ± 0.015 for the second.

GLPPLLSPVPLR and DICYGVALSQVE are within error of each other in protein stability index: 0.646 ± 0.057 for the first, 0.676 ± 0.045 for the second.

HLPSHPSLPPAP and IRQRSRGGLSSD are within error of each other in protein stability index: 0.707 ± 0.029 for the first, 0.684 ± 0.021 for the second.

PAPPSPSPPPPL and PRPPSPRAPPPH are within error of each other in protein stability index: 0.836 ± 0.14 for the first, 0.631 ± 0.067 for the second.

Going from LPLWQHPTKPVH to WAPHLPQPSRCS, the protein stability index rises from 0.64238 ± 8.1e-05 to 0.743 ± 0.062.

Going from PPSPRPPPSPPP to VWGGVICFGLWM, the protein stability index falls from 0.7 ± 0.039 to 0.579 ± 0.02.

KKNHTQIKEVPR and PPRLPPLPPSYP are within error of each other in protein stability index: 0.6943 ± 0.00099 for the first, 0.777 ± 0.14 for the second.

PPRHTPTNPPKA and LKPMSRKSLRSM are within error of each other in protein stability index: 0.677 ± 0.05 for the first, 0.715 ± 0.022 for the second.

Compared with SEGRMHGLFLLN, SGDLLLGCTLVV is higher in protein stability index: 0.544 ± 0.022 for the first, 0.6313 ± 0.0018 for the second.

CWQMTWSEGLGN and EKKNKKRNKKNK are within error of each other in protein stability index: 0.687 ± 0.038 for the first, 0.697 ± 0.058 for the second.

First: VAVGIVGGWWGV
Second: GGGWGSMDLRDR
The protein stability index of the first is higher: 0.843 ± 0.11 for the first, 0.712 ± 0.016 for the second.

GGSEEGGKAAKT and KAEKMRARQKED are within error of each other in protein stability index: 0.652 ± 0.015 for the first, 0.657 ± 0.011 for the second.

Going from YSAPFRIPLSLR to GREGELDKKKWH, the protein stability index rises from 0.631 ± 0.034 to 0.723 ± 0.051.

Going from LSKASNTLVDSD to CRGGWKCGQEKG, the protein stability index falls from 0.755 ± 0.058 to 0.635 ± 0.014.

GYLLGCGCGWSG and HVVSSGFLVGLG are within error of each other in protein stability index: 0.621 ± 0.034 for the first, 0.671 ± 0.039 for the second.

Compared with RGGGLGGLRSRA, PPPLPPPLPLCS is lower in protein stability index: 0.823 ± 0.081 for the first, 0.675 ± 0.023 for the second.

DLIKCPTNMVRL and NIRYRQKEKKND are within error of each other in protein stability index: 0.646 ± 0.068 for the first, 0.573 ± 0.031 for the second.

GRGDNRKVDGEG and AKRKEAGKPHAN are within error of each other in protein stability index: 0.671 ± 0.061 for the first, 0.695 ± 0.085 for the second.

Going from LSRSTSYILIII to SFLRHSCFPSVP, the protein stability index rises from 0.515 ± 0.039 to 0.736 ± 0.023.

First: KRKKEKNQPTKR
Second: VLIAIIRYGPYT
The protein stability index of the first is higher: 0.6972 ± 0.0044 for the first, 0.538 ± 0.0021 for the second.

GCGGGGGAWKGV and TPIAGGAKLFHV are within error of each other in protein stability index: 0.751 ± 0.056 for the first, 0.646 ± 0.058 for the second.

VPPSPPRPPPPS and PPSPLAPPCSPR are within error of each other in protein stability index: 0.697 ± 0.053 for the first, 0.6719 ± 0.0056 for the second.

ISCWHGYAKESS and SLSLSFVLSSCS are within error of each other in protein stability index: 0.671 ± 0.039 for the first, 0.721 ± 0.014 for the second.

STPPPRSLPSPP and RSRRPALVLSGN are within error of each other in protein stability index: 0.716 ± 0.045 for the first, 0.729 ± 0.011 for the second.

SGRGANGVPGGE and SCVDRAVGCRVS are within error of each other in protein stability index: 0.602 ± 0.16 for the first, 0.6961 ± 0.0042 for the second.

Going from PSPLPLSPLPFS to PLSTPLSPALLS, the protein stability index falls from 0.687 ± 0.04 to 0.602 ± 0.023.

LCHESFDGTFVN and GWSSSCTATRSA are within error of each other in protein stability index: 0.72 ± 0.022 for the first, 0.743 ± 0.045 for the second.

Going from SLSPLPCTVLRL to VSHCLLRAFSDC, the protein stability index falls from 0.684 ± 0.05 to 0.556 ± 0.011.

ETEASKGSRNEE and RPAIPPATPPPP are within error of each other in protein stability index: 0.627 ± 0.065 for the first, 0.649 ± 0.027 for the second.

Going from WLRRFIFGSVVN to PSPHHHYTPPST, the protein stability index rises from 0.657 ± 0.015 to 0.681 ± 0.0073.

Work on QKAQLISQVNTG yielded a protein stability index of 0.6682 ± 0.0065.
